Experiments:
[1] = target: TcdA1 from Photorhabdus luminescens (Pl-TcdA1) (P. luminescens) (UniProt Q9RN43); assay: cryo-EM structure
[2] = target: TcdB2-TccC3 from Photorhabdus luminescens (Pl-TcdB2-TccC3) (P. luminescens) (UniProt Q8GF99); assay: BLI
[3] = target: TcdA4 from Morganella morganii (Mm-TcdA4) (M. morganii); assay: cryo-EM structure
[4] = target: XptA1 from Xenorhabdus nematophila (Xn-XptA1) (X. nematophila); assay: cryo-EM structure
[5] = target: TcdA4 from Photorhabdus luminescens (Pl-TcdA4) (P. luminescens) (UniProt Q8GF92); assay: cryo-EM structure

Substance	stoichiometry N [1]	Kd [2] [nM]	stoichiometry N [3]	stoichiometry N [4]	stoichiometry N [5]
TcdA1 from Photorhabdus luminescens (Pl-TcdA1), Q9RN43 1-2516	5	0.63			
TcdA4 from Morganella morganii (Mm-TcdA4) (natural protein)		11.3	5		
XptA1 from Xenorhabdus nematophila (Xn-XptA1) (natural protein)		1.99		5	
TcdA4 from Photorhabdus luminescens (Pl-TcdA4), Q8GF92 1-2381					5
